{"source": "paper PMC6736755", "target": "H-2 I-A^d class II MHC molecule (mouse)", "test": "radioligand binding", "data": [{"substance": "OVA323–339 peptide (WT)", "values": [{"measurement": "IC50", "value": 2, "unit": "nM"}]}]}
